Assay results published in patent US4587340A, “Biopterin analogs” (Burroughs Wellcome Co., priority 1984, dated 1986).

Experiments:
[1] = tested on: COCC1CNc2nc(N)[nH]c(=O)c2N1; assay: Tyrosine hydroxylase cofactor assay; assay type: biochemical
Description: Tyrosine hydroxylase was partially purified through a 25-45% ammonium sulfate fraction. […] The enzyme was assayed by a modification of the method of Nagatsu, T., Levitt, M., and Udenfriend, S. (Anal. Biochem. 9, 122, (1964)) where the Dowex chromatography step was replaced by a charcoal extraction.

[2] = tested on: C[C@H](O)[C@H](O)[C@H]1CNc2nc(N)[nH]c(=O)c2N1; assay: purified protein, by the assay type

Tyrosine hydroxylase (Homo sapiens), sequence (chain, as listed by the source): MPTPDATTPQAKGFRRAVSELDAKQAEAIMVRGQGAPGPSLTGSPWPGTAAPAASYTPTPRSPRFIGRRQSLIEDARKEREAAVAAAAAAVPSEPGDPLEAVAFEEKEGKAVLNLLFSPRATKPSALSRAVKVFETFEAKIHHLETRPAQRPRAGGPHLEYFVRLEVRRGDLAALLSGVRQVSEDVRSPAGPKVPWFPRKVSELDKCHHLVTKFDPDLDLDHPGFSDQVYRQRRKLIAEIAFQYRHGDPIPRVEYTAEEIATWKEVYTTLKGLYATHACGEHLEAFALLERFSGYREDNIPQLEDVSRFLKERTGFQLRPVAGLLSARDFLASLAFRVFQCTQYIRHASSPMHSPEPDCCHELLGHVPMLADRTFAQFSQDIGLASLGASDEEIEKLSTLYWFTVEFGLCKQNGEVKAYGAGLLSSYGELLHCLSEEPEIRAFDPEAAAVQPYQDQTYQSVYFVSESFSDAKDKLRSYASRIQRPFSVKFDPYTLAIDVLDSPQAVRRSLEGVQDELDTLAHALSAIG

For Tyrosine hydroxylase (Homo sapiens), the Km [1] was 65 µM and the Km [2] was 110 µM.
